Experiment: label from the status in PepcDB records

Row | Sequence | protein production
1 | MVKESGMASLLLENPYYGYRKPKDQLRSSLKNVSDLFVMGGALILESAALLHWLERDGFWPLGMTGISMGGHMASLAVTNWPKPIPLIPCLSWTTASSVFTTGVLSRAVNWRELEKQYATHTVYEEEIISMLEYCGTDSFRMGQEFVKNAPGSFDGLDLTQELLQSGQQVALRSSYSGRPASDQDSSVLMGRRERDGLDQMLSAVSSSAPHLDMLHAKSIACGSGQRQSLQRESLCFMKGVMDECTHIANFSVPVDPSLIIIVQAKEDAYVPRTGVRSLQEIWPGCEVRYLNGGHISAYLFKQGLFRQAIYDAYDRFLHKYSSL | not failed
2 | MVKIEVAKPINFNRLITSKEAEVVSMRILNQPNSYISLFSLAKDEEITAEAMLGNRYYYCFNGNGEIFIENNKKTISNGDFLEITANHNYSIEARDNLKLIEIGEKIGDGNMENKTLKMLESASAFNLAEVVEYQEGKIVSKNLVAKPNLVMTIMSFWKGESLDPHKAPGDALVTVLDGEGKYYVDGKPFIVKKGESAVLPANIPHAVEAETENFKMLLILVKE | not failed
3 | MVKKFKRVLVANRGEIAIRIFRACHELGIRTVAIYSEEDKLALFRTKADESYLIGQNKGPVDAYLNIDEIINLALKKGVDAIHPGYGFLSENSEFSRRCTEAGIEFIGPTGDMMDKLGDKINSKLAAKAAGVKTIPGVEKPIETEQQAIEFARTCGYPVMVKAAAGGGGRGMRIVEKEEDLIAACRSAKSEAKKAFGIEDIFIEKYLEGPKHIEVQVLGDKYGNIVHLYERDCSVQRRHQKVIELTPAVSMSEEKRLEICEDALKIARSIGYRSAGTLEFLLDKHGNHYFIEMNPRVQVEHTITEMVTGIDIVQSQILIAEGYKLNSPEVGINSQEDIHVNGYAIQCRITTEDPSNSFAPDTGKIDVYRTGSGFGIRLDGGNGFTGAVISPYYDSLLVKSTSWSRTFEDAIRKAIRAIKETYISGVKTNIDFLINVLNHETFRKGLCDTNFIANNPELFEITPRIDTELRVLKFIGEKVVNETHGHKIEVDVPSVPKYEIKEPLRGTKQILDEKGPKGLVEWIKDQDKLLLTDTTMRDAHQSLMATRLRTVDMVKIAKAESVLAKDLFSMEMWGGATFDTAYRFLKESPWERLERLRKRVPNVLFQMLLRGANAVGYKNYPDNVIREFIKQSSKSGIDVFRIFDSLNWVKGMEVAIDEVLNQGKVAEACMCYTGDILDTNRDKYTLNYYVNLAKEIEKSGAHILGIKDMSALLKPYAALKLIRALKNEISIPIHLHTHDTTGNGVATVLMAAHAGVDIADTAFNSMSGLTSQPALNSVVAALKNTDRDTKMDIGDLQKISDYWSTVRPVYSKFESGLKAVSAEIYKYEIPGGQYSNLKPQVESFGLGHRFEQVKEMYREVNIMLGDIVKVTPSSKMVGDLAIFMVQNELTSENILEKAKDMPFPDSVVSYFKGMMGQPKGGFPKELQKIVLKDEEAITCRPGELLPDEDFDKIRVRLKKENKIEPTDKDVISYALYPDVFEEYLKYKNEYGDLSRMGSDVFFHGLAEGEISELEIAEGKTLVVQLLHIGKLDKQGNRTLVFEVNGNRREIKIKDKVSSTKSEIVEEIVIADSSNKKEIGASIPGNVVKVFVKPGDKVKKGDSLMVIEAMKMETNVSVSEDGTVGGIFVKEGDQVQSGQLLVKLD | failed
4 | MVKKGFLTGLLLFGIFFGAGNLIFPPALGVASGQDFWPAILGFCLSGVGLAIITLLLGTLTNGGYKTEMSEKFSPWFSLTFLVILYLTIGPLFAIPRTATVSFEIGVAPIVGHSPIALLCFTACFFAAAYYLAIRPNGILDSVGKILTPVFAFLILSLVVVGAIAYGNLESAKASADYAGKAFGSGVLAGYNTLDALAAVAFCLVATETLKKFGFKTKKEYLSTIWIVGIVTSLAFSILYIGLGFLGNKFPVPADILADPNVNKGAYVLSQASYKLFGNFGRYFLSIMVTLTCFTTTVGLIVSVSEFFDKNFRFGNYKLFATVFTLIGFLIANLGLNAVITFSVPVLTLLYPIVIVIVLIILINKWLPLSKKGMSLTIGLVTLVSFVEVLAGQWQEKTLTQLVGFLPFHTISMGWLVPMLIGIVFSLVLSDKQKGQAFDLEKFEG | failed
5 | MVKKIGLSIMLLFFFLIIALPIYAWKIEPNLVHVNQVTLGKKNQREPLNVVQLSDIQVSEFYETKRLDKVIKKVNREKPDIIVFTGDLFDNYAKNPQQKEPMIEKLKQLQATIGKYAVWGNHDYGGGASAVYDEVMEASGFTVMKNQGETVTLADGRRLFIGGLDDSLLGNPSVSETLSYRETYDYALLMTHEPDVADAFVGTGTQLVLAGHSHGGQIWIPFYPITNVLAEKYTRGLYQLDQETQLYVNTGLGTTAIHARFGVIPEITHFTIYI | failed
6 | MVKLGCSFSGKPGKEAGDQDGAAMDSVPLISPLDVSQLQPSFSDQVVINTQTEYQLTSADQPKKFADLEGQRLACSHSEEGRRLPTARMIAFAMALLGCVLIMYKAIWYDQFTCPDGFLLRHKICTPLTLEMYYTEMDPERHRSILAAIGAYPLSRKHGTEMPAVWGNNYRTAKEEHKGTTPAAMAVSTAAAAAAAEGTEPSGKSLDTREKEDPQKAEGVPSQPPK | failed
7 | MVKNGRDPPERNFYCTEKEETAPPLMNIFDDFKSQIEREIMTIFLKTAYESLLSIAISTEIIVPEDETRSLEKEVIKLMKLMKLMNLLEPLGNRVSRLMGLVRNAEEHRERIVKRNQESDVREIFKIAASRTKTRFHKALQKESSSSSMKWGFTEAKDEVLSLGIRLTHALIKLTLLRVKKNDREKQLLLRDWIFDESYEKQSALMYLLDYLLYKAEEFAASVVVEESGNDHHRQHILEEDRIGDDILTRISEAIFILQLLAMNLSRNVLTERDLIATNDQLLRCVRDVKFVESTIVVLMKGRSLKLKHKGKQSLLMKERTETIFWAKVNAELNKCWGESFWKYVEAARHLEAVVSSQQIVYTLCKLFVFGFES | failed
8 | MVKQGVFMKTDQSKVKKLSDYKSLDYFVIHVDLQIDLSKKPVESKARLTVVPNLNVDSHSNDLVLDGENMTLVSLQMNDNLLKENEYELTKDSLIIKNIPQNTPFTIEMTSLLGENTDLFGLYETEGVALVKAESEGLRRVFYLPDRPDNLATYKTTIIANQEDYPVLLSNGVLIEKKELPLGLHSVTWLDDVPKPSYLFALVAGNLQRSVTYYQTKSGRELPIEFYVPPSATSKCDFAKEVLKEAMAWDERTFNLECALRQHMVAGVDKYASGASEPTGLNLFNTENLFASPETKTDLGILRVLEVVAHEFFHYWSGDRVTIRDWFNLPLKEGLTTFRAAMFREELFGTDLIRLLDGKNLDERAPRQSAYTAVRSLYTAAAYEKSADIFRMMMLFIGKEPFIEAVAKFFKDNDGGAVTLEDFIESISNSSGKDLRSFLSWFTESGIPELIVTDELNPDTKQYFLKIKTVNGRNRPIPILMGLLDSSGAEIVADKLLIVDQEEIEFQFENIQTRPIPSLLRSFSAPVHMKYEYSYQDLLLLMQFDTNLYNRCEAAKQLISALINDFCIGKKIELSPQFFAVYKALLSDNSLNEWMLAELITLPSLEELIENQDKPDFEKLNEGRQLIQNALANELKTDFYNLLFRIQISGDDDKQKLKGFDLKQAGLRRLKSVCFSYLLNVDFEKTKEKLILQFEDALGKNMTETALALSMLCEINCEEADVALEDYYHYWKNDPGAVNNWFSIQALAHSPDVIERVKKLMRHGDFDLSNPNKVYALLGSFIKNPFGFHSVTGEGYQLVADAIFDLDKINPTLAANLTEKFTYWDKYDVNRQAMMISTLKIIYSNATSSDVRTMAKKGLDKVKEDLPLPIHLTFHGGSTMQDRTAQLIADGNKENAYQLH | failed
9 | MVKRANTFAMRPLTADDEQVLRDLLDASAALWNEINYQRLMRYNDKDGFEDEDVWDADTGALEGKYKAVLGASTAQTVRRANTEAWRSFFRLKKQFHDESNTSVTEHPEPPGFRGNKDDGRVLKGVVRKDAYSVEWGDRSRLEMVVGEQLRDRHNSPKSRLRLEIVGDPNWSDYEDQGRLELWYDETDCTFRASQPVTVSDDARATPLANEKAALDIGANNLVACTTTTGQQYLYEGRELFQRFRETTREIARLQSKLPEGRYSSKRIRRLYRKRTRRRDHAQETLCRDLLEQLYGEGVDTVYIGGLTDVLETHWSAETNAKTHNFWAFKQFTERLAWTADEYGISVEVRSEAWTSQECPQCGSTDRTTRQQDTLTCPCGFEGHADVTASETFLERHTEKAVRPMARPVRFEWDDHEWSESPRSPARESPKEQRTDPSTVPRDGNVVSGDSLEHHHHHH | failed
10 | MVKSDIIIVKNFHGVFCLNLVNEIFENKYKIIDILGKGGMSTVYLAKDIKLQKFWAIKEVSNNINDTSKLKVDLLAETNILKKLDHPALPRIVDIIKRDESLYIVMDFIDGVSLDKFIHKNGAINEKVVLDWAKQICDVLSYLHSQKPNPIIYRDMKPGNLMLTQNGKIKLIDFGIAREYKKEVSKDTTYIGTRGYAAPEQYGDCQSDARTDIYSFGVTLYHMLTGKGPNDPPFELKPVRELNSSLSEGIEHIIEKSTRQDPSLRYQNVDEMLYDIKNIHKLNSKYKKQLVKKYIKVAASACLFIFSVFLIISGVLGIKSDSANEYNNIIENGSKQNGDKAVEYFKQAVDKNSSNPKAYIKIIDTYLENGEYDQSIDFIETNLNNKQSELLKDNELLFKIGMAYFDDESYAKAYQYFNKIKGADISISEPLKYYKPVANALSKVDLQNKDKIVSSITQLEKYIDSRSDVDYKVESYITLAELYRDNPQIFPQNTDKEIGVLEKASSVSANKNNAILYGQLGQAYFDKASESKIEQDKYNFYLNKALDSYKNSIQMGSKISNTYCKLGLIYKYLGNTAESKNTFQKETQLFSDDYKGYMEMALLEYDSQQSAAPETRNYSEFVKYYNSTVSKKYNENDVDFMTLKQEYNDLKNQGVIK | failed
11 | MVKSFPKGKHRQRIRLWLGSLVLAALLVGGGLFSWYHWRSPSLKPLYTLTVEAPPQTLPELEQWAQSADLLKRDRARYLLAVESLSQRQPQVALQWLQNLEQTYRPMAAPILLLRAEAYRQQGDSRRAQETWEQLLRDYGSEPEAAIALLSLNQPQRAIARFPQHPAVVHYVAQQLEKNPDQVPYLKLVARYGLFLQGYGTYLEILRQRYADQLTPADWEAIAFGYWEKMQYAPAAEAYAKARPTPLNLYRVGRGRQLSGERTGAIAAYQALIQRFPNSSEAALAQLRLARLAKTAAERLPLLAKCLQLATENQAPAIAADALLEQYQAYRELGNTKGAQQSQQQLFKTYPQSSAAAELRWQLAQGAAQKRQWSQAQQWVREILKFNPESELAARAAFWQGKWQGEAGQPQAQRQTWQLVTERYPHTYYAWRAASLLQKPVGTFTTLRQQRPSVAGDRQPLLPLATGSPTLQELYLLRQFQEAWQRWQWEFQNRVTPTAAEQLTDGLIRLGVGEYLDGIFMLQNLFTRAAREPQVATFFAPIRRDLRFWYALYPLPYWELVKKWSLAHNLNPLLVMALIRQESRFEKDIRSVVGATGLMQLMPETAAWIAQQLNLEDYSLVDPEHNIRLGTWYFDYTHNQYNQNTLLALASYNAGPGNVSQWLERFDIGDSDRFVESIPFPETYGYVKSVLENYWNYWQLYAQP | failed
12 | MVKTRAQRIKRMSVVDALCIRSQISVKSARYCKTVSKHLAKLQLAESGKNSSLVVCPSMGKTMKLYSMDAKRCKLSLLSTIDPSQRTPEVFMYMISSYNGIICCVNMIYDEDVENKFCDLQIWICNPITKETLLLPQGTPSFEFEPSIGVAYGSDVSDYKVYRIFCTGKIIPEERGPAEGFYVQEGRFFTKYGHSLAYECEVYSSSTGSWKNIGTVPCLPMSCSLRPYRRTGHIFVGGKVYWLVSLDAPGKILSVDLEGKFEVINLPAYADGLREDEQITEASHLINLKGSLGLLVLHPENMDVWVWKHDGERYSWVFQFKDVVPIKDDELILAVTALDNKIICVNETHWRIYDMETEKWKRRKSPRTGFRNPVVLPFTESVLPCNGGVKQ | failed
13 | MVKVSIIIPIYNVENYLDKCLDTAVNQTLGCIEIIGIDDGSTDKSRDILNKYAKKYSFIKIINKENGGLSSARNTGIINAKGEYIYFLDSDDYIEYDSMKICYEIATKNKLDIVSFDAESFVDGEGFTKKLKKYDRKDILDGNIKMGCEYFCELIKNKCYTASACLNFYRREFLIDNNLFFYDGILHEDELYTVKAYTLANKVRYIPYKLYFRRLRSNSITTQSISEKHLYGRLIAARESYRHYLGYKDVFDNDTNTCLLNHISNMYYFMLKDIYENKRIYNKRYIIEDKIINDIKSKKDIKSFKLDLQYRFPLIIYTIKKYLKKD | failed

From a protein production outcome set (Wang et al. 2014)
